Assay results taken from article PMC3458052, “Single Amino Acid Substitutions in the Chemotactic Sequence of Urokinase Receptor Modulate Cell Migration and Invasion” (PLoS ONE, 2012).

Target: T1, uPAR carrying the S90P substitution (human, UniProt Q03405 23-305, S90P)
T1 construct: human uPAR, whole cDNA in pcDNA3 with S90P made by site-specific mutagenesis, on 293 cells; also called uPAR^S90P; source: on intact adherent cells and in RIPA lysate
Test: radioligand binding; 10 nM ^125I-Vn with increasing unlabeled Vn on adherent transfected 293 clones (2×10^5 cells/well), 3 hours at 4°C, binding buffer DMEM, 1 mg/ml BSA, 10 mM Hepes pH 7.4; surface-bound label recovered by acid wash pH 3.0; apparent Kd; cells also carry endogenous αvβ5
Details: one partner purified

T1 sequence (Q03405 23-305 S112P): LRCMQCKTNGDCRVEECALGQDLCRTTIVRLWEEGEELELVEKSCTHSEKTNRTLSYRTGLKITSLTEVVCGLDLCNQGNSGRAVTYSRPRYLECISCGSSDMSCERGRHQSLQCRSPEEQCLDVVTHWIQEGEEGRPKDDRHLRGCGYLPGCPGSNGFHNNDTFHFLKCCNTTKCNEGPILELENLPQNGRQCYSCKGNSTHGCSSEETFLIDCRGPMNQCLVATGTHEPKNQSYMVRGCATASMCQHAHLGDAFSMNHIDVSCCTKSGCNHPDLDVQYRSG

B1: vitronectin (ligand, UniProt P04004 20-478, looked up)
chain: DQESCKGRCTEGFNVDKKCQCDELCSYYQSCCTDYTAECKPQVTRGDVFTMPEDEYTVYDDGEEKNNATVHEQVGGPSLTSDLQAQSKGNPEQTPVLKPEEEAPAPEVGASKPEGIDSRPETLHPGRPQPPAEEELCSGKPFDAFTDLKNGSLFAFRGQYCYELDEKAVRPGYPKLIRDVWGIEGPIDAAFTRINCQGKTYLFKGSQYWRFEDGVLDPDYPRNISDGFDGIPDNVDAALALPAHSYSGRERVYFFKGKQYWEYQFQHQPSQEECEGSSLSAVFEHFAMMQRDSWEDIFELLFWGRTSAGTRQPQFISRDWHGVPGQVDAAMAGRIYISGMAPRPSLAKKQRFRHRNRKGYRSQRGHSRGRNQNSRRPSRATWLSLFSSEESNLGANNYDDYRMDWLVPATCEPIQSVFFFSGDKYYRVNLRTRRVDTVDPPYPRSIAQYWLGCPAPGHL
modifications: ^125I (radio-iodinated with Na^125I using IODO-BEADS) on the tracer; the competitor is unlabeled
notes: vitronectin (Vn), bought from Promega; also called Vn; ^125I-Vn; source: bought: Promega
With B1 the IC50 was about 10 nM.
